Source: US20120301393A1, “MODIFIED UBIQUITIN PROTEINS HAVING A SPECIFIC BINDING ACTIVITY FOR THE EXTRADOMAIN B OF FIBRONECTIN” (Scil Proteins GmbH, priority 2009, published 2012)
Entries after “also recorded” stand apart in the source; their conditions may differ.

Experiments:
[1] = test system: L929 cells; assay: L929 apoptosis assay (TNFα activity); format: cell-based; settings: actinomycinD sensitized L929 cells, 48 h; listed as free cytokine; read-out: EC50 value, corresponding TNFα (free cytokine) tested in parallel
Protocol: The physiological TNFα-activity of TNFα-modified ubiquitin based ED-B binding fusions has been determined using the L929 apoptosis assay (Flick et al., 1984 J. Immunol. Methods. 68:167-175). In this assay, TNF-alpha efficiently stimulates cell death in actinomycinD sensitized cells at EC50 values in the picomolar range.
Cells have been resuspended in medium containing FBS and antibiotics. A cell suspension of 100 μl of a densitiy of 3.5×10^5 cells/ml has been seeded into the wells of a 96 well standard cell culture plate followed by over night incubation in a humidified CO2 incubator. Thereafter, the culture medium has been removed and 50 μl of medium containing FBS, ActinomycinD and antibiotics has been added to each well followed by a further 30 min incubation time. Thereafter, 50 μl of the test items, TNFα-modified ubiquitin based ED-B binding-fusions or the human recombinant TNFαcontrol, at an appropriate concentration range of between 10^−7 and 10^−18 M, have been added. After a further 48 h incubation time the metabolic activity as a measure of cell survival was determined using WST-1 reagent (Roche).
Per test item at least three independent experiments have been conducted, each of them in triplicates. […]
The quantitative evaluation is based on the EC50-value, i.e. the value according to the test item concentration promoting the survival of half of the cells.

[2] = biological target: ED-B (67B89) (Homo sapiens, UniProt P02751); assay: concentration dependent ELISA analyzing serum-stability of binding activity; settings: 1 h at 37° C. in mouse or rat serum
Protocol: The ELISA is performed using procedures well known in the art and as described above (Example 5A and 5B). ED-B (here referred to as 67B89) is coated to microtiter plates, the variant is bound to ED-B and detected by a specific ubiquitin-antibody (Anti-Ubi-Fab-POD). The variant in this assay is treated in different ways: the variant is incubated in mouse serum for 1 h at 37° C. (see in FIG. 13, circles in blue); the variant is incubated in rat serum for 1 h at 37° C. (in FIG. 13, circles in red); or the variant is incubated PBS for 1 h at 37° C. (in FIG. 13, circles in black).

[3] = biological target: fibronectin fragment 67B89 (soluble ED-B) (Homo sapiens, UniProt P02751); assay: complex-formation analysis by SE-HPLC with 67B89; format: binding; settings: 0.72 nmol each, 1 h RT
Protocol: (§1) For the analysis of complex formation, Tricorn Superdex 75 5/150 GL columns (GE-Healthcare) (V=3 ml) was used, protein amount of 50 μl was applied. Further conditions: buffer: 1×PBS, pH 7.3, flow-rate: 0.3 ml/min, run: 45 min (injection of sample: after 15 min). Condition: 0.72 nmol 1041-D11 protein+0.72 nmol ED-B (herein referred to 67B89 or also as a negative control 6789) incubated for 1 h at RT; then applied to column for analysis of complex-formation. In FIG. 14, only the variant is shown in black, only the target ED-B is shown in blue, the variant binding building a complex with ED-B in pink.

[4] = biological target: T1, Human fibronectin lacking the ED-B domain (h6789) (Homo sapiens, UniProt P02751); assay: concentration dependent ELISA, negative control fibronectin fragment without ED-B; format: binding
T1 construct: fibronectin fragment 6789 without ED-B

[5] = test system: murine ST-2-cells; assay: binding to cell culture cells, ST-2; format: cell-based; settings: 1, 10, 50 nM
Protocol: (§2) The binding of, for example, variant 1041-D11 to cell culture cells was tested. Different cell culture cells were analysed, including normal human fetal lung fibroblast cells having high expression levels of ED-B (Wi38 cells), a mouse embryonic fibroblast cell line (Balb 3T3); a stromal cell line, derived from mouse bone marrow (ST-2) monocytes/macrophages (RAW 264.7), NHDF cells and murine fibroblast cells (LM).
(§3) Similar experiments were performed using different cells types, for example Balb3T3 (ATCC, Kat-Nr. 30-2002), Raw (Lonza, Kat-Nr. BE12-115F/U1), ST-2 (Lonza, Kat-Nr. BE12-115F/U1).

[6] = biological target: T2, ED-B in F9 tumor vasculature (Mus musculus, UniProt P11276); assay: immunohistochemistry on F9 tumor tissue sections; parameters: species or system mice; settings: seven samples
T2 construct: 1041-D11 specifically decorates the vasculature in tissue sections from F9 tumors; from tissue; host or cells: F9 tumor tissue sections from mice
Protocol: F9 tumor tissues from seven samples were evaluated. […] ED-B is a highly specific marker for tumor vasculature. The target protein EDB is located on the abluminal side of the vessels. 1041-D11 specifically decorates the vasculature in tissue sections from F9 tumors. […] Thus, fusion proteins based on modified ubiquitin specifically binding to ED-B are suitable an ED-B based targeted therapy for cancer.

[7] = test system: monocytes/macrophages (RAW 264.7); assay: binding to cell culture cells, Raw; format: cell-based; settings: data not shown
Protocol: as §2, §3

[8] = biological target: immobilized ED-B containing fibronectin fragment (67B89) (Homo sapiens, UniProt P02751); assay: competitive concentration dependent ELISA; format: binding; settings: in the presence of increasing amounts of free target
Protocol: Competitive concentration dependent ELISAs analyzed the binding of ubiquitin variant 1041-D11 to immobilized ED-B containing fibronectin fragment […] in the presence of increasing amounts of free target. Conditions of the ELISA were as described for Example 5A, except that 1041-D11 protein was preincubated with ED-B (67B89) (0 μM-10 μM) or also with negative control 6789 (0 μM-10 μM) for 1 h and subsequently the mixture was given to the target 67B89 that was placed on a Medisorp-plate; following this, the variant was detected by the corresponding antibody (anti-Ubiquitin-Fab-POD; dilution 1:6500).

[9] = test system: human fetal lung fibroblast cells (Wi38); assay: binding to cell culture cells, Wi38; format: cell-based; settings: immunofluorescence
Protocol: as §2
The negative control cell type NHDF are primary normal fibroblast cells, which express low levels of EDB-fibronectin (data not shown).
The negative control cell type NHDF is primary normal fibroblast cells, which express low levels of EDB-fibronectin. The cells were plated in chamber-slides (NUNC, 60000 cells/ml). To analyses the binding potential the cells were fixed with 100% MeOH for 5 min at −20° C. To block unspecific binding, the cells were incubated with 5% Horse-serum 1 h 37° C. The cells were tested with the variant 1041-D11, an ED-B specific antibody FV28 CH4/F1 as positive control or UB—2 as negative control with different concentrations 1 h RT. The proving occurred about an incubation with rabbit-a-Strep-Tag-IgG (obtained from GenScript A00875, 1:500) for 1 h and incubation with a-rabbit-IgG*Alexa488-AK (obtained from Invitrogen A11008, 1:1000) for 1 h. The nuclei were stained with DAPI. […] The first 2 lines show the variant and positive control on Wi38-cell line.

[10] = test system: murine Balb 3T3-cells; assay: binding to cell culture cells, Balb 3T3; format: cell-based; settings: 1, 10, 50 nM
Protocol: as §2, §3

[11] = tissue panel staining (48 tissues, FDA relevant panel)
[12] = biological target: T3, ED-B free fibronectin fragment 6789 (Homo sapiens, UniProt P02751); assay: complex-formation analysis by SE-HPLC with 6789; format: binding; settings: 0.72 nmol each, 1 h RT
T3 construct: fibronectin fragment 6789 without ED-B
Protocol: as §1

[13] = biological target: ED-B containing fibronectin fragment (67B89) (Homo sapiens, UniProt P02751); assay: label-free interaction assay using Biacore; format: binding; settings: 1:1-Langmuir-fitting
Protocol: Different concentrations of the variant were analyzed (for example, 0-200 nM of the variant, preferably 1041-D11) for binding to an ED-B containing fibronectin fragment (referred to as 67B89) immobilized on a CM5-chip (Biacore) using methods known to those skilled in the art. The obtained data were processed via the BIAevaluation software and 1:1-Langmuir-fitting. The kinetic binding constants were kon=7.6*10^5 M^−1 s^−1; koff=7.7*10^−4 s^−1. […]

Sequence of ED-B containing fibronectin fragment (67B89) (P02751 32-2477): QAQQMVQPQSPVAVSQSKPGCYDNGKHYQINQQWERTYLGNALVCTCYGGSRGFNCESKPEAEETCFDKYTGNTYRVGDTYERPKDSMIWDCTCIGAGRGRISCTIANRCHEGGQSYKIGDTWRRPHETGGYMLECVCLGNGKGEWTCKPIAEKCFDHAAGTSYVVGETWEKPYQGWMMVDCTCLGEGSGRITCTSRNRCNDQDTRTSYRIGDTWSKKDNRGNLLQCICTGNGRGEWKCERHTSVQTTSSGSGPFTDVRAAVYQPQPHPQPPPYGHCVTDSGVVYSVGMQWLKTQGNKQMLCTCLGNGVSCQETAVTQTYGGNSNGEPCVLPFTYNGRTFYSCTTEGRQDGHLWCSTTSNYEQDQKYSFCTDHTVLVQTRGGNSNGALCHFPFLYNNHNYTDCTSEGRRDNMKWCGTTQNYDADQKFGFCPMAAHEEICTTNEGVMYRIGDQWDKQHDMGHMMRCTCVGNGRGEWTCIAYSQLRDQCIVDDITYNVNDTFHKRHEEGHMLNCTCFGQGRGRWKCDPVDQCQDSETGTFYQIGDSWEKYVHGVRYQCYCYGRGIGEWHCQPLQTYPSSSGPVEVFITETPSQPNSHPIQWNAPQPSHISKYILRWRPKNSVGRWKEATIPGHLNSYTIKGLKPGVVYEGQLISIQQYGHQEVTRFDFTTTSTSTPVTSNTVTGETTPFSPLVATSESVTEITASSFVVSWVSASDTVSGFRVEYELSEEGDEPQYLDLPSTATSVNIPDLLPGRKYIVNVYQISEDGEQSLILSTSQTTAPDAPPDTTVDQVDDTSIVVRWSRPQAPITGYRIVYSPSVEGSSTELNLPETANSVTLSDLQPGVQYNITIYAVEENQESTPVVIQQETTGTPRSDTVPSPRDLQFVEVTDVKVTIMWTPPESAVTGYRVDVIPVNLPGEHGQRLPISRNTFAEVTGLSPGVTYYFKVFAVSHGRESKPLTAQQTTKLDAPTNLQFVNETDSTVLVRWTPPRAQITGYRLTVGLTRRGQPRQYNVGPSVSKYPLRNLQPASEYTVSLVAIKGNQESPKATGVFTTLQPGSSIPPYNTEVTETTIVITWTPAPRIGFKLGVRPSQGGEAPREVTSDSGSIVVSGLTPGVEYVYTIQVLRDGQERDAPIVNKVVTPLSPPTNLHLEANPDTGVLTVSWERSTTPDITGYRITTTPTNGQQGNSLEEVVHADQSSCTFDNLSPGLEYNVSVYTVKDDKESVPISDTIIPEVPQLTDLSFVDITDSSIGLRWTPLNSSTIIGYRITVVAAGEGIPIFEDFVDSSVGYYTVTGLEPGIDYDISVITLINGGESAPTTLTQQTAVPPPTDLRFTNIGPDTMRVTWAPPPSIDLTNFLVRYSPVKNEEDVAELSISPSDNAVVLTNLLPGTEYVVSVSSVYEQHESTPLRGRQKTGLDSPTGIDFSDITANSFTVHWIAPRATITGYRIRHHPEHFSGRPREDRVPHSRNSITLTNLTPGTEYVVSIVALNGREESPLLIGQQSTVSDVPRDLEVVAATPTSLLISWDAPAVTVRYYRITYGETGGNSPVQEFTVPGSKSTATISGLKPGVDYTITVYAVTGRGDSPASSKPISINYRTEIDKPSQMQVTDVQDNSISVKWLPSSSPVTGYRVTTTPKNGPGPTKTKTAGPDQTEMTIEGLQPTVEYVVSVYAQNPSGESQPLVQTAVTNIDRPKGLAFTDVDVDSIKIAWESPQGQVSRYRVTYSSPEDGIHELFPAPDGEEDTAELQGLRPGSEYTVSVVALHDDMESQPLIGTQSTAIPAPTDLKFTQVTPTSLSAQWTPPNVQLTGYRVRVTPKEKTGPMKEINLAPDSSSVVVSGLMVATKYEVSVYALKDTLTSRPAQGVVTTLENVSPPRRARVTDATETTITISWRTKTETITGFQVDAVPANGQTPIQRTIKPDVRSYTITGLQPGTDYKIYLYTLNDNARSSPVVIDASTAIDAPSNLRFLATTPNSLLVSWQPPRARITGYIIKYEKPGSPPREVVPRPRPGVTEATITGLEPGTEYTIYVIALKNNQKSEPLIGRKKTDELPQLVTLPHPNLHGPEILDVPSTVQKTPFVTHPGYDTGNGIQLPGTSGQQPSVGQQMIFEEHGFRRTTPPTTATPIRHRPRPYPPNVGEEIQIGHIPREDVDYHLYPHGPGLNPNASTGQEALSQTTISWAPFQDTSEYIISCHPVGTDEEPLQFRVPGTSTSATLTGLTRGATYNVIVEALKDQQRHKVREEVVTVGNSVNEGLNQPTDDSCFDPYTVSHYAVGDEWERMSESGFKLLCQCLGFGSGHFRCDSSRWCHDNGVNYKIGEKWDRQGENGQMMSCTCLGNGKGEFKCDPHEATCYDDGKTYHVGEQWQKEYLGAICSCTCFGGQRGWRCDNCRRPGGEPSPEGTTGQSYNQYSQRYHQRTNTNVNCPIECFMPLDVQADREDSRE
Sequence of fibronectin fragment 67B89 (soluble ED-B) (P02751 32-2477): as above
T3 sequence (P02751 1089-1449 isoform P02751-1): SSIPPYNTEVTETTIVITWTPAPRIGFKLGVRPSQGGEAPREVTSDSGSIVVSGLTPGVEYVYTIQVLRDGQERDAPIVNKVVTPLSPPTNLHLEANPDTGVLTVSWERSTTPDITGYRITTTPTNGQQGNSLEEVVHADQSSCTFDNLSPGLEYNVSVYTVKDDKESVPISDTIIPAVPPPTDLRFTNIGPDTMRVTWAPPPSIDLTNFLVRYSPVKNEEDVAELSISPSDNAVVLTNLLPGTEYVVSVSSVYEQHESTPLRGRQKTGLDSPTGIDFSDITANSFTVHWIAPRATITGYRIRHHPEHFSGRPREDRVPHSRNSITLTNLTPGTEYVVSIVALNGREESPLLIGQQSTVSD
Sequence of ED-B (67B89) (P02751 32-2477): as the sequence (P02751 32-2477) above
Sequence of immobilized ED-B containing fibronectin fragment (67B89) (P02751 32-2477): as above
T1 sequence (P02751 1089-1449 isoform P02751-1 limits assumed): as the sequence (P02751 1089-1449 isoform P02751-1) above

Substance	EC50 [1] [nM]	influence of blood serum on binding to ED-B [2]	complex formation with 67B89 [3]	binding to negative control fibronectin fragment without ED-B (6789) [4]	binding to fixed murine ST-2-cells [5]	staining of F9 tumor tissue sections [6]	binding to monocytes/macrophages (Raw) [7]	IC50 [8] [nM]	binding to vital Wi38 cells [9]	binding to fixed Wi38 cells ([9]; 58.7 nM and 587 nM)	binding to fixed murine Balb 3T3-cells [10]	unspecific staining in 48 tissues of FDA relevant panel [11]	complex formation with 6789 [12]	koff [13] [s⁻¹]	kon [13] [M⁻¹ s⁻¹]
TNFα [reference compound]	0.00314 ± 0.00359														
1041-D11: hetero-dimeric ubiquitin variant: K6W, L8W, K63R, E64K, S65F, T66P; second module Q2R, K6T, L8Q, Q62W, K63S, E64N, S65W, T66E		not significantly influenced	formation of a complex; also recorded: builds a complex	no binding	binds to murine Balb ST-2 cells with high specificity	ED-B specific vascular staining	No binding	140	binds to vital Wi38 cells with high specificity	binds to fixed Wi38 cells with high specificity	binds to murine Balb 3T3 cells with high specificity	no unspecific staining	no significant binding; also recorded: builds no complex	0.00077	760000
